Assay results: patent US20030100510A1 (KANSAS UNIVERSITY MEDICAL CENTER, published 2003)

Biological target: the molecule itself
Assay: crystal structure of the NC1 hexamer, 2.0 Å
Procedure: The heavy atom soak screens were carried out at beamlines 1-5 and 9-2 of Stanford Syncrhortron Radiation Laboratory (SSRL) and beamline X8C of National Synchrotron Light Source (NSLS) at Brookhaven National Laboratory. The Br-MAD data sets used in this study were collected at SSRL and processed using DENZO and […] programs of HKL2000 suite (39). The Br⁻ sites were located using SOLVE program (40) and 37 highest peaks (>6σ) were used for phasing the reflections at 2.2 Å resolution. The resulting phases were improved by solvent flattening using RESOLVE (41) and the electron density map was calculated using FFT program of CCP4 suite (42). Polypeptides of two α1 chains and one α2 chain (chains A-C) were traced using the TOM FRODO graphics program (43). The complete asymmetric unit was generated using non-crystallographic symmetry (“NCS”) relations obtained from Br⁻ sites—first the second trimer (chains D-F) was generated to complete one hexamer and then the second hexamer (chains G-L) was generated from the first hexamer. […] The structure was analyzed using SETOR(45), GRASP(46), and SURFNET(47) graphics software packages and various utility programs in CCP4 suite. The hexamer interface was analyzed using HBPLUS(48) and protein-protein interaction web server (http:/www.biochem.uc1.ac.uk/bsm/PP/server/). […]

Row | Protein | binding result
1 | type IV collagen α1 chain NC1 domain (bovine lens basement membrane) (other, UniProt Q7SIB2 1441-1669, looked up, domain: NC1; 5-6 N-terminal and 2 C-terminal residues are disordered in the map; also called α1 NC1; α1(IV) NC1) SVDHGFLVTRHSQTTDDPQCPPGTKILYHGYSLLYVQGNERAHGQDLGTAGSCLRKFSTMPFLFCNINNVCNFASRNDYSYWLSTPEPMPMSMAPITGENIRPFISRCAVCEAPAMVMAVHSQTIQIPQCPTGWSSLWIGYSFVMHTSAGAEGSGQALASPGSCLEEFRSAPFIECHGRGTCNYYANAYSFWLATIERSEMFKKPTPSTLKAGELRTHVSRCQVCMRRT | binds
2 | type IV collagen (α1)2.α2 NC1 trimer (bovine lens basement membrane) (other, domain: NC1; Two such trimers make the [(α1)2.α2]2 NC1 hexamer that was crystallized. m3 is used for facts told of the trimer-trimer (hexamer) interface as a whole; also called protomer NC1 trimer; half of the [(α1)2.α2]2 NC1 hexamer) chain 1: SVDHGFLVTRHSQTTDDPQCPPGTKILYHGYSLLYVQGNERAHGQDLGTAGSCLRKFSTMPFLFCNINNVCNFASRNDYSYWLSTPEPMPMSMAPITGENIRPFISRCAVCEAPAMVMAVHSQTIQIPQCPTGWSSLWIGYSFVMHTSAGAEGSGQALASPGSCLEEFRSAPFIECHGRGTCNYYANAYSFWLATIERSEMFKKPTPSTLKAGELRTHVSRCQVCMRRT chain 2: ISIGYLLVKHSQTDQEPMCPVGMNKLWSGYSLLYFEGQEKAHNQDLGLAGSCLARFSTMPFLYCNPGDVCYYASRNDKSYWLSTTAPLPMMPVAEEDIRPYISRCSVCEAPAVAIAVHSQDVSIPHCPAGWRSLWIGYSFLMHTAAGDEGGGQSLVSPGSCLEDFRATPFIECNGARGTCHYYANKYSFWLTTIPEQSFQGTPSADTLKAGLIRTHISRCQVCMKNL | binds
